Experiment: label from the status in PepcDB records
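Also: failed if final PepcDB status was selected cloned or expressed and not failed if soluble or beyond.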

Sequence | protein production
MIDSLLDEMTLEEQVSVLSGADFWTTVPVERLGIPKIKVTDGPNGARGGGSLVGGVKATCYPVAIALGATWNPALIEAMGVSLAGQVKSKGASVLLAPTVNIHRSGLNGRNFECYSEDPMLTAALAVAYIKGVQSQGVAATIKHFAGNESEIERQTMSSDIDERALREIYLLPFEQAVKKAGVMAVMSSYNRLNGTYTSEHNWLLTDVLREQWGFDGIVMSDWFGSHSTSESVNAGLDLEMPGPTRDRGEKLVQAVRDGTVRPETVREAAGRILTLLERVGAFSSAPDLSEHAEDLPADRALIRKIGAEGAVLLKNDNILPLEKASLKRVAVIGPNAAVARVMGGGSAQINAHYTISPLEGIRAALQGTADVQHSVACGNSRLVKLFSQPVTVEYFKGVNCQGTPVAAEAVQTGEFFWFELPSPDLSLTDFSVRFTGTFTPQEDGPHLLGMTNSGLAKLYVDGELVVDGYTDWKRGENFFGTANDEIRHSVEMKAGRSYAIKVEYLSPPPEEYGIHITAIRFGIERILGEDAMVEAVECAKGADVALLFVGREGQWDTEGLDLPDMRLPGRQEELIERVSAVNPNCIVVLQTGGPVEMPWLEKVKAVLQVWYPGQELGNAVADMLFGDQEPGGRLPQTFPKQLSDNSAITNDPSIYPGMDGHVRYEEGVFVGYRHHDSRTIEPLFPFGFGLNYTSFEWDEPKASASEMTASGVTVSVRVSNTGKRAGSDVVQLYVEAPVSGVERPLKELRAFAKIALEPGESGEVTLEINPRDLSYYDVDAAAFRAPAGDYRLLIGAHAQDIRSAITIVNPQEWLGAVGDRTI | failed
MDYNQTVLSHLQKFWKHHDIKGFTWTLGRIVEELPDFQVFQVIPNHEDEPWVYVSSGIGQFLGQEFFIISPFETPEHIETLAMLASASMHYPDQFQLGKTVNIGRPWVEQSSFRHFLISLPYPYGQELEYMDNVRFFWLLPITQTERLFLNTHSVEELETKFDEAGIDYLDINRASTVWQAG | not failed
MDKTQSYDIFLIAPPGLEQVLAEEATACGFDEPRVVPGGVETRGPWSEVMRANLVLRGAGRVLVRIGGFPAVHLAQLDKRARKFAWGDFLRPDRPIRVEAVSRKSKIYHAGAAKQRVERAITEELGAPISDEAEIRLMLRIERDFCTFSIDTSGEALHKRGHKEAVGKAPMRETMAALFLRQCGFDGAEPVLDPMCGSGSFVIEAAEWAAGLMPGRSRSFAFEQLAGFDAAQWQSMRNAAGAGGRPESLYSGSDRNAGAIDASRANATRAGVADFCAFHQRPVSDIRPPEGRPGLVIVNPPYGARIGDQARLRSLYGSLGKVLMDRFSGWRVGLITSEMSLARSTRLPFQAPGPVVDHGGIKVRLYQSVRLR | failed
MAIGERIRFFRNLRGMTQKYLGTVVGFPENTADIRMAQYESGSRTPKADLTENLAGVLGVSPLALSVPDIDSYLGLMHTLFTLEDRYGLTIEKGENGVSMCVDPRKGKDAAELSEMLNAWAKQAEKYHNGDISRELEHHHHHH | not failed
MADERRCGVCRPLGGPRQPWPAGLLHCSSRAIFASLCMPRIVFAPAIQRHVAMPALDVGAATVAAALQAAFAREPRLRGYLLDDQGSLRRHVALFVDGVQVRDRRGLGDPLQDDSEIYVVQALSGGLEHHHHHH | failed
MNNNEKKVKYFLRKTAYGLASMSAAFAVCSGIVHADTSSGISASIPHKKQVNLGAVTLKNLISKYRGNDKAIAILLSRVNDFNRASQDTLPQLINSTEAEIRNILYQGQIGKQNKPSVTTHAKVSDQELGKQSRRSQDIIKSLGFLSSDQKDILVKSISSSKDSQLILKFVTQATQLNNAESTKAKQMAQNDVALIKNISPEVLEEYKEKIQRASTKSQVDEFVAEAKKVVNSNKETLVNQANGKKQEIAKLENLSNDEMLRYNTAIDNVVKQYNEGKLNITAAMNALNSIKQAAQEVAQKNLQKQYAKKIERISSKGLALSKKAKEIYEKHKSILPTPGYYADSVGTYLNRFRDKQTFGNRSVWTGQSGLDEAKKMLDEVKKLLKELQDLTRGTKEDKKPDVKPEAKPEAKPDVKPEAKPDVKPEAKPDVKPEAKPDVKPEAKPDVKPEAKPDVKPKAKPDVKPEAKPDVKPDVKPDVKPEAKPEDKPDVKPDVKPEAKPDVKPEAKPEAKPEAKPEAKPEAKPEAKPDVKPEAKPDVKPEAKPEAKPEAKSEAKPEAKLEAKPEAKPATKKSVNTSGNLAAKKAIENKKYSKKLPSTGEAASPLLAIVSLIVMLSAGLITIVLKHKKN | failed
MSLAQKLRQASSRLLGVVFELQQPFHGDLVEQIYAAATRRGYDVMLSAVAPSRAEKVAVQALMRERCEAAILLGTRFDTDELGALADRVPALVVARASGLPGVGAVRGDDVAGITLAVDHLTELGHRNIAHIDGADAPGGADRRAGFLAAMDRHGLSASATVVTGGTTETEGAEGMHTLLEMPTPPTAVVAFNDRCATGVLDLLVRSGRDVPADISVVGYDDSRLARIPHVQMTTISQDATHMAEAAVDGALAQISGDKAVDLVLAPHLVRRATTGPVAHREGHHHHHH | not failed
MSQFTPHFTYRNVALALLVSTVLNGCATKGFRDADDQAERDIRTAEQLHGLSLKQPSSPSLVWVDEPWVNPRPIRVSARAQQVKLPPCSLTLIIDGSLSLYEVGQRITRSCGFPVVITPDAMSALSGSASQGGVGATRAIQGALPRPDEGGRPALGSIGGVTSTQSFSPNIGAGLITDISWEGEPLGGALDQITSRLGLNWKFENNQVVLYYLDTRTYRLKVLNAETAMNSNLTGTSSSTAGGDSSSVSGSQNSGQSTSVKLESKIHNDIGQSIKSMVSSSGSWHLSGSTGELVVTDVPQVLDRVESYIDSLNVRMNRMVKLMVSVYSVQRKGSSQTSLDWSVVGKRLDRFGLTLAGTPTATTAVSSAGINVVDGKFAGTTALFRALETQGKVSVVMAHEATTTNLVPAPFQIAGQMVYLRSQKTSVSENYATTDMEPGSITTGTQMTLLPDIRDEGDIQLQFNFSHSDPAQLRKESSKDGNTKMEMPYTTVRSLSERVNLKPGQTLIVSGYNSRNLTASREGAFDPDVTVAGGGKSSETDDVTLIIAVTPVLM | failed
MNILNNKNKRTSIFKALALCLFAAVSFTFVSCDDDMDIQQSYPFTVETMPVPNKVTKGQTVEIRCELKKTGDFANTLYTIRYFQFEGEGTLKMDNGITFLPNDRYLLENEKFRLYYTAQGDEAHNFIVVVEDNFGNSYELEFDFNNRNVKDDGVITVVPIGNFKPLTR | failed
MGKRMLSMFHPFEIALCGLSGSGKTTLLEKLIRRFSTDGFEVAAFKHGCHRFDIDREGKDSDRFRRAGAVPVLIVDREKEALISSGTGRLDIAGLTLNADLLFIEGFKELPVPKVLLIDERREILPSLESGAIPEVLALAHDGDAEDMERFGLPLFHRDDVARISDFSAEFFRRAAQSVPLNGLVLAGGRSLRMGRDKAQLRYHEASQLDRTAALLGGVCNEVFISCRSDQLDQYSDARLPGIADSYLDLGPLGGLLSAQRHAPGAAWLVAACDLPFIDEAVIAALRAGRHPFRFGTAFAGSDGRPEPLLAIYEPKSRRRLLERHASGNDSLRAFLMNSRVQFIEPNDASKLRNVNDPAAMDDALRAISKGGQLEHHHHHH | failed
MKYLYQQLLAFIGVIALIILIVGTSFTQLTKRTMQENNYEQLYGYAESALETRDFFINVAGVSDRDVLSYSFQLTERVLQKQDVQFVFINKDREVQYPPVDSTKKLDFSLIDKNWDQIMKGNRVYATENIDIYGARNTSSYVMLPVYASNQSSDKKVIIGSLVITQPAKNVDRSVQSVTQNLIKGFIFSGVIALLLSYLFATFQVKRINRMRKATKEITSGNFDIQLPVHDKDEFDDLAEDFNKMAASLKESQEEINRQEERRRQFMADASHEMRTPLTTINGLLEGLQYNAIPENQKENAIKLMQNETARLIRLVNENLDYEKIRTNQIQIVVKKFNGTEALENIVTQLTAKAEAAGNQLYLDTTEPIDVYADYDRFVQVVVNIVQNAIQFTENGEIHIALEKGYLETIVRISDTGIGMTEEQILNIWDRYYKVDPSRKNTKYGESGLGLPIVQQLVRLHKGKINVESELGKGTTFIISFPDVEITEN | not failed
MSEPMSERERWQLELDKLQRGLQGDPFAFLGPQRDPGGEGGVLRAYLPGAQRVELLDEDGATLAELEQSDPGSGLFQRHLERLPPRYRLRVHWPDGVQESEDPYAFGPLLGELDLYLFAEGNHRQLASCLGAQLTRHEGVEGVRFAVWAPNAVRVSVVGDFNGWDGRRHPMRRRYPSGVWELFVPRLGEGELYKYELQGHDGLLPLKADPLALACETPPGTASKTCAALRHEWRDQDWLARRAERQGYAAP | failed

Source: a protein production outcome set (Wang et al. 2014)
